Assay results: US20110091971A1, “Differentiation of Pluripotent Stem Cells” (priority 2008, published 2011)
Values joined by “and” are separate entries in the source; they are usually repeats but may differ in a detail not shown here. Equal entries are not always repeated. “Also recorded” adds a separate entry of the source.

Tested on: H1 or H9 human embryonic stem cells
Assay: Activin A bioassay: differentiation of human embryonic stem cells to definitive endoderm, cell number and SOX17 intensity by high content analysis (96-well, four days);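 as to Cell Number average: Raw total cell count per well from high content imaging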;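 as to Sox 17 Intensity average: total fluorescence of the cell multiplied by cell area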
Assay type: cell-based
Text: Activin A is an important mediator of differentiation in a broad range of cell types. […] A bioassay that measures this differentiation in human embryonic stem cells was adapted in miniaturized format to 96-well plates for screening purposes. Validation was completed using treatment with commercial sources of activin A and Wnt3a recombinant proteins and measuring protein expression of the transcription factor SOX17, which is considered a representative marker of definitive endoderm.
Live Cell Assay: Briefly, clusters of H1 or H9 human embryonic stem cells were grown on growth factor-reduced MATRIGEL™ (Invitrogen; Cat #356231)-coated tissue culture plastic. Cells were passaged using collagenase (Invitrogen; Cat # Cat #17104-019) treatment and gentle scraping, washed to remove residual enzyme, and plated in a ratio of 1:1 (surface area) on growth factor-reduced MATRIGEL™-coated 96-well plates (black, 96-well; Packard ViewPlates; Cat #6005182). Cells were allowed to attach as clusters and then recover log phase growth over a 1 to 3 day period, feeding daily with MEF conditioned medium supplemented with 8 ng/ml bFGF (R&D Systems; Cat #233-FB).
The assay was initiated by washing the wells of each plate twice in PBS and followed by adding an aliquot (100 μl) of test sample in DMEM:F12 basal medium (Invitrogen; Cat #11330-032) to each well. Test conditions were performed in triplicate, feeding […] by aspirating and replacing the medium from each well with test samples over a total four day assay period. On the first and second day of assay, test samples added to the assay wells were diluted in DMEM:F12 with 0.5% FCS (HyClone; Cat #SH30070.03) and 20 ng/ml Wnt3a (R&D Systems; Cat #1324-WN). On the third and fourth day of assay, test samples added to the assay wells were diluted in DMEM:F12 with 2% FCS, without any Wnt3a. Positive control samples consisted of recombinant human activin A (Peprotech; Cat #120-14) added at a concentration of 100 ng/ml throughout assay plus Wnt3a (20 ng/ml) on days 1 and 2. Negative control samples omitted treatment with both activin A and Wnt3a.
High Content Analysis: At the conclusion of four days of culture, assay plates were washed twice with PBS, fixed with 4% paraformaldehyde at room temperature for 20 minutes, then washed three times with PBS and permeabilized with 0.5% Triton X-100 for 20 minutes at room temperature. Cells were washed again three times with PBS and blocked with 4% chicken serum (Invitrogen; Cat #16110082) in PBS for 30 minutes at room temperature. Primary antibody (goat anti-human SOX17; R&D Systems; cat #AF1924) was diluted 1:100 in 4% chicken serum and added to each well for one hour at room temperature. Alexa Fluor 488 conjugated secondary antibody (chicken anti-goat IgG; Molecular Probes; Cat #) was diluted 1:200 in PBS and added to each sample well after washing three times with PBS. To counterstain nuclei, 4 μg/ml Hoechst 33342 (Invitrogen; Cat #H3570) was added for ten minutes at room temperature. Plates were washed once with PBS and left in 100 μl/well PBS for imaging.
Imaging was performed using an IN Cell Analyzer 1000 (GE Healthcare) utilizing the 51008bs dichroic for cells stained with Hoechst 33342 and Alexa Fluor 488. Exposure times were optimized from positive control wells and from untreated negative control wells stained with secondary antibody alone. Images from 15 fields per well were acquired to compensate for any cell loss during the bioassay and subsequent staining procedures. Measurements for total cell number and total SOX17 intensity were obtained from each well using IN Cell Developer Toolbox 1.7 (GE Healthcare) software. Segmentation for the nuclei was determined based on grayscale levels (baseline range 100-300) and nuclear size. Averages and standard deviations were calculated for each replicate data set. […]

[1] = supernatant concentration 1x, assay dilution 1:20
[2] = supernatant concentration 1x, assay dilution 1:20, control = R&D Sys Activin A 100 ng/ml on same plate
[3] = supernatant concentration 10x, assay dilution 1:20
[4] = supernatant concentration 10x, assay dilution 1:20, control = R&D Sys Activin A 100 ng/ml on same plate
[5] = supernatant concentration 10x, assay dilution 1:40
[6] = supernatant concentration 10x, assay dilution 1:40, control = R&D Sys Activin A 100 ng/ml on same plate
[7] = concentrated supernatant (10x; ACTD3 4x), assay dilution 1:20

R&D Sys Activin A
Cell Number average (assay concentration 6.25 ng/ml): 5540
Sox 17 Intensity % of control (assay concentration 6.25 ng/ml): 13%
Sox 17 Intensity average (assay concentration 6.25 ng/ml): 5.49E+06
Cell Number average (assay concentration 12.5 ng/ml): 5784
Sox 17 Intensity % of control (assay concentration 12.5 ng/ml): 19%
Sox 17 Intensity average (assay concentration 12.5 ng/ml): 8.10E+06
Cell Number average (assay concentration 25 ng/ml): 6212
Sox 17 Intensity % of control (assay concentration 25 ng/ml): 39%
Sox 17 Intensity average (assay concentration 25 ng/ml): 1.69E+07
Cell Number average (assay concentration 50 ng/ml): 6218
Sox 17 Intensity % of control (assay concentration 50 ng/ml): 33%
Sox 17 Intensity average (assay concentration 50 ng/ml): 1.45E+07
Cell Number average (assay concentration 100 ng/ml): 8680
Sox 17 Intensity % of control (assay concentration 100 ng/ml): 100%
Sox 17 Intensity average (assay concentration 100 ng/ml): 4.37E+07
Cell Number average (assay concentration 200 ng/ml): 12032
Sox 17 Intensity % of control (assay concentration 200 ng/ml): 285%
Sox 17 Intensity average (assay concentration 200 ng/ml): 1.25E+08
Cell Number average (assay concentration 400 ng/ml): 13961
Sox 17 Intensity % of control (assay concentration 400 ng/ml): 396%
Sox 17 Intensity average (assay concentration 400 ng/ml): 1.73E+08

B1: ACTN41: activin A variant peptide, SEQ ID 42 (protein)
chain: GLECDGKVNLCCKKQDFVSFKDIGWNDWIIAPSGYHANSCSGLCPSHIAGTSGSSLSFHSTVINHYRMRGHSPFSDRGACCIPTKLRPMSMLYYDDGQNIIKKDIQNMIVEECGCS
Cell Number average [1]: 6073
Sox 17 Intensity average [1]: 1.42E+05
Sox 17 Intensity % of control [2]: 1.5%
Cell Number average [3]: 1397
Sox 17 Intensity average [3]: 1.46E+05
Sox 17 Intensity % of control [4]: 1.6%
Cell Number average [5]: 2643
Sox 17 Intensity average [5]: 6.30E+04
Sox 17 Intensity % of control [6]: 0.7%

B2: OriGene wildtype: wildtype human activin A expressed from commercial OriGene construct (Cat. No. TC118774, pCMV6-XL4); supernatant used as positive control (protein, UniProt P08476 311-426, looked up)
Inhibin beta A chain: GLECDGKVNICCKKQFFVSFKDIGWNDWIIAPSGYHANYCEGECPSHIAGTSGSSLSFHSTVINHYRMRGHSPFANLKSCCVPTKLRPMSMLYYDDGQNIIKKDIQNMIVEECGCS
modifications: Inhibin beta A chain activin A homodimer
improvement of functional activity on concentrating the supernatant (HEK293-E supernatant, 4× concentrated versus 1× (neat)): approximately 1.5 fold
activity (SOX17 intensity) of supernatants (HEK293-E supernatants, OriGene in pCMV6-XL4 compared with ACTN 1 in pcDNA3.1(−)): much greater activity; also recorded: superior
Cell Number average [1]: 979
Sox 17 Intensity average [1]: 1.819E+07
Sox 17 Intensity % of control [2]: 9.9%
Cell Number average [3]: 5548
Sox 17 Intensity average [3]: 2.035E+08
Cell Number average (supernatant concentration 10x, assay dilution 1:20, assay plates #007, #009, #010, listed as OriGENE WT): 12727 and 7061 and 11356
Cell Number average (supernatant concentration 50x, assay dilution 1:20, assay plates #008, #009, listed as OriGENE WT): 12200 and 9025
Sox 17 Intensity % of control (supernatant concentration 50x, assay dilution 1:20, control = R&D Sys Activin A 100 ng/ml on same plate, listed as OriGENE WT): 409.0% and 285.3%

B3: ACTN16: activin A variant peptide, SEQ ID 17 (protein)
chain: GLECDGKVNLCCKKQLFVSFKDIGWNDWIIAPSGYHANHCSGLCPSHIAGTSGSSLSFHSTVINHYRMRGHSPFSQMGACCVPTKLRPMSMLYYDDGQNIIKKDIQNMIVEECGCS
Cell Number average [7]: 8775
Sox 17 Intensity average [7]: 3.89E+07
Sox 17 Intensity % of control (concentrated supernatant (10x; ACTD3 4x), assay dilution 1:20, control = R&D Sys Activin A 100 ng/ml): 89%
higher potency of supernatant concentrated 10× relative to corresponding unconcentrated supernatant (primary screening, SOX17 expression, H1 cells): 4 fold
Cell Number average [1]: 7068
Sox 17 Intensity average [1]: 1.36E+07
Sox 17 Intensity % of control [2]: 52.7%
Cell Number average [3]: 11118
Sox 17 Intensity average [3]: 5.55E+07
Sox 17 Intensity % of control [4]: 214.4%
Cell Number average [5]: 11064
Sox 17 Intensity average [5]: 6.46E+07
Sox 17 Intensity % of control [6]: 249.3%

B4: ACTN38: activin A variant peptide, SEQ ID 39 (protein)
chain: GLECDGKVNLCCKKQDFVSFKDIGWNDWIIAPSGYHANKCGGKCPSHIAGTSGSSLSFHSTVINHYRMRGHSPFSQLGACCVPTKLRPMSMLYYDDGQNIIKKDIQNMIVEECGCS
Cell Number average [1]: 2023
Sox 17 Intensity average [1]: 9.26E+04
Sox 17 Intensity % of control [2]: 1.0%
Cell Number average [3]: 3019
Sox 17 Intensity average [3]: 3.89E+05
Sox 17 Intensity % of control [4]: 4.2%
Cell Number average [5]: 2520
Sox 17 Intensity average [5]: 3.56E+04
Sox 17 Intensity % of control [6]: 0.4%

B5: R&D Sys Activin A (protein, UniProt P08476 311-426, looked up)
Inhibin beta A chain: GLECDGKVNICCKKQFFVSFKDIGWNDWIIAPSGYHANYCEGECPSHIAGTSGSSLSFHSTVINHYRMRGHSPFANLKSCCVPTKLRPMSMLYYDDGQNIIKKDIQNMIVEECGCS
modifications: Inhibin beta A chain activin A homodimer
Sox 17 Intensity % of control (100 ng/ml (the control itself)): 100%
Sox 17 Intensity % of control (100 ng/ml (the plate's control itself)): 100%

B6: ACTN39: activin A variant peptide, SEQ ID 40 (protein)
chain: GLECDGKVNLCCKKQNFVSFKDIGWNDWIIAPSGYHANECSGLCPSHIAGTSGSSLSFHSTVINHYRMRGHSPFSDMGSCCVPTKLRPMSMLYYDDGQNIIKKDIQNMIVEECGCS
Cell Number average [1]: 1596
Sox 17 Intensity average [1]: 5.13E+04
Sox 17 Intensity % of control [2]: 0.5%
Cell Number average [3]: 3362
Sox 17 Intensity average [3]: 1.31E+06
Sox 17 Intensity % of control [4]: 14.0%
Cell Number average [5]: 1331
Sox 17 Intensity average [5]: 4.81E+05
Sox 17 Intensity % of control [6]: 5.1%

B7: ACTN35: activin A variant peptide, SEQ ID 36 (protein)
chain: GLECDGKVNLCCKKQDFVSFKDIGWNDWIIAPSGYHANRCSGKCPSHIAGTSGSSLSFHSTVINHYRMRGHSPFSDMGSCCVPTKLRPMSMLYYDDGQNIIKKDIQNMIVEECGCS
Cell Number average [1]: 8553
Sox 17 Intensity average [1]: 7.94E+04
Sox 17 Intensity % of control [2]: 0.3%
Cell Number average [3]: 6805
Sox 17 Intensity average [3]: 1.26E+06
Sox 17 Intensity % of control [4]: 4.3%
Cell Number average [5]: 7926
Sox 17 Intensity average [5]: 6.76E+05
Sox 17 Intensity % of control [6]: 2.3%

B8: ACTN43: activin A variant peptide, SEQ ID 44 (protein)
chain: GLECDGKVNYCCKKQDFVSFKDIGWNDWIIAPSGYHANRCDGKCPSHIAGTSGSSLSFHSTVINHYRMRGHSPFSDMGACCVPTKLRPMSMLYYDDGQNIIKKDIQNMIVEECGCS
Cell Number average [1]: 657
Sox 17 Intensity average [1]: 1.85E+04
Sox 17 Intensity % of control [2]: 0.2%
Cell Number average [3]: 877
Sox 17 Intensity average [3]: 2.13E+05
Sox 17 Intensity % of control [4]: 2.3%
Cell Number average [5]: 1251
Sox 17 Intensity average [5]: 5.57E+04
Sox 17 Intensity % of control [6]: 0.6%
